Columns and labels:
[1] = target: T1, PSGL-1, native glycoprotein from human HSPCs (KG1a, CD34^pos-BM) (human, UniProt Q14242 42-412, native glycosylation and tyrosine sulfation); assay: SPR; PSGL-1 captured from KG1a lysate on KPL-1-mAb, E-Ig injected (3.9-2000 nM), 150 mM NaCl; steady-state model; 1st experiment
T1 construct: mature; also called P-selectin glycoprotein ligand-1
T1 sequence (looked up): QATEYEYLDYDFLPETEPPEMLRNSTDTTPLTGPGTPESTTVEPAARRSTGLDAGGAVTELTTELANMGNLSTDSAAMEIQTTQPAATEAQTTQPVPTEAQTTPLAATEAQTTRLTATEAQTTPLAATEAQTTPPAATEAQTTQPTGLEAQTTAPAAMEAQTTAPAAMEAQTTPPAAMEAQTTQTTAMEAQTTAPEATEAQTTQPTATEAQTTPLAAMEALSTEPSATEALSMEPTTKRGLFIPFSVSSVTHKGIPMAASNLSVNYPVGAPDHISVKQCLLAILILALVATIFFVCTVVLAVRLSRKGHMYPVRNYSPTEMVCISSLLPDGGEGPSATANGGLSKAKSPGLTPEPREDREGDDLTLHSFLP

[2] = target: T1, PSGL-1, native glycoprotein from human …; assay: SPR; PSGL-1 captured from KG1a lysate on KPL-1-mAb, E-Ig injected (3.9-2000 nM), 150 mM NaCl; steady-state model; 3rd experiment
[3] = target: T2, CD34, native glycoprotein from human HSPCs (KG1a, CD34^pos-BM, CD34^pos-UCB, CD34^pos-AML) (human, UniProt P28906 32-385, native glycosylation (about 120-130 kDa form); sialylated O-glycans and tyrosine sulfation are shown to matter for selectin binding); assay: SPR, apparent rate constant: includes loss of CD34 or CD34⋅E-Ig from 4H11-mAb and of E-Ig from CD34⋅4H11-mAb; KG1a lysate
T2 construct: mature; also called E-selL CD34
T2 sequence (looked up): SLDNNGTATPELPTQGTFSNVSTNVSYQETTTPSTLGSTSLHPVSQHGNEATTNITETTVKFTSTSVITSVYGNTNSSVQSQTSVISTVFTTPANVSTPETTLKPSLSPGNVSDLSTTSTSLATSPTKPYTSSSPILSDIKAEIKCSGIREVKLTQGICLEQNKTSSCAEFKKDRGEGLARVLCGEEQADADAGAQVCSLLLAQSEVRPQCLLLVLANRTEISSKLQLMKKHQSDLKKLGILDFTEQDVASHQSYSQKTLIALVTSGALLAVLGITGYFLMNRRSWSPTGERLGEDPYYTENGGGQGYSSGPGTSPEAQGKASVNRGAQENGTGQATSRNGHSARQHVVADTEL

[4] = target: T1, PSGL-1, native glycoprotein from human …; assay: SPR; PSGL-1 captured from KG1a lysate on KPL-1-mAb, E-Ig injected, 150 mM NaCl; apparent rate constant; 3rd experiment
[5] = target: T2, CD34, native glycoprotein from human …; assay: SPR; CD34 captured from CD34^pos-BM lysate on 563 mAb; apparent rate constant, estimate
[6] = target: CD44 (HCELL), native glycoprotein from human HSPCs (KG1a, CD34^pos fraction) (human) (UniProt P16070); assay: SPR; CD44 captured from KG1a lysate on Hermes-3-mAb, E-Ig injected (3.9-2000 nM), 150 mM NaCl; steady-state model; 3rd experiment
[7] = target: T2, CD34, native glycoprotein from human …; assay: SPR; CD34 captured from KG1a lysate on 563-mAb, E-Ig injected (3.9-2000 nM), 150 mM NaCl; steady-state model; mean ± SEM
[8] = target: T2, CD34, native glycoprotein from human …; assay: SPR; CD34 captured from KG1a lysate on 563-mAb, E-Ig injected, 150 mM NaCl; apparent rate constant; 1st experiment
[9] = target: CD44 (HCELL), native glycoprotein from human HSPCs (KG1a, CD34^pos fraction) (human) (UniProt P16070); assay: SPR; CD44 captured from KG1a lysate on Hermes-3-mAb, E-Ig injected (3.9-2000 nM), 150 mM NaCl; steady-state model; 2nd experiment
[10] = target: T2, CD34, native glycoprotein from human …; assay: SPR; CD34 captured from KG1a lysate on 563-mAb, E-Ig injected, 150 mM NaCl; apparent rate constant; 2nd experiment
[11] = target: CD44 (HCELL), native glycoprotein from human HSPCs (KG1a, CD34^pos fraction) (human) (UniProt P16070); assay: SPR, from the binding isotherm; CD44 captured from KG1a lysate
[12] = target: T2, CD34, native glycoprotein from human …; assay: SPR; CD34 captured from KG1a lysate on 563-mAb, E-Ig injected, 150 mM NaCl; apparent rate constant; 3rd experiment

CD44 (HCELL), native glycoprotein from human HSPCs (KG1a, CD34^pos fraction) (human), sequence (P16070 21-742): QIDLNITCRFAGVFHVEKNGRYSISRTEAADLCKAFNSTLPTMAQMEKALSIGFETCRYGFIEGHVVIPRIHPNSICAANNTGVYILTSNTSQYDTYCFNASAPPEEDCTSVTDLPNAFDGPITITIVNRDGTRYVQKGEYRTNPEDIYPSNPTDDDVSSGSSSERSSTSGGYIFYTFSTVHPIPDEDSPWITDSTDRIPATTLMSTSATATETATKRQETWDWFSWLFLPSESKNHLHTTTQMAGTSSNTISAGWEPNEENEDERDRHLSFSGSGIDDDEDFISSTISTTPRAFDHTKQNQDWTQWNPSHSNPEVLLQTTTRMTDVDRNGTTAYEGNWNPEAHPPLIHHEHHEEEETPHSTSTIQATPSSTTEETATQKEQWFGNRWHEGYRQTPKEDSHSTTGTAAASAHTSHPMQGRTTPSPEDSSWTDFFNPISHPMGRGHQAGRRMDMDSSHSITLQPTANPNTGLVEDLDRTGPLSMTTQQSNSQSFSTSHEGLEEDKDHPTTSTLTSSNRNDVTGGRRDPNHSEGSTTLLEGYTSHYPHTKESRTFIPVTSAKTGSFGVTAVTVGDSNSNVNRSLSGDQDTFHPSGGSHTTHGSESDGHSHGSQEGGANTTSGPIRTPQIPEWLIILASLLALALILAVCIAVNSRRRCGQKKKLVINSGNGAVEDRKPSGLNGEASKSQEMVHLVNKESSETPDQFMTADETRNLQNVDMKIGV

B1: recombinant E-selectin human immunoglobulin chimeric protein (Fc fusion)
chain: WSYNTSTEAMTYDEASAYCQQRYTHLVAIQNKEEIEYLNSILSYSPSYYWIGIRKVNNVWVWVGTQKPLTEEAKNWAPGEPNNRQKDEDCVEIYIKREKDVGMWNDERCSKKKLALCYTAACTNTSCSGHGECVETINNYTCKCDPGFSGLKCEQIVNCTALESPEHGSLVCSHPLGNFSYNSSCSISCDRGYLPSSMETMQCMSSGEWSAPIPACNVVECDAVTNPANGFVECFQNPGSFPWNTTCTFDCEEGFELMGAQSLQCTSSGNWDNEKPTCKAVTCRAVRQPQNGSVRCSHSPAGEFTFKSSCNFTCEEGFMLQGPAQVECTTQGQWTQQIPVCEAFQCTALSNPERGYMNCLPSASGSFRYGSSCEFSCEQGFVLKGSKRLQCGPTGEWDNEKPTCEAVRCDAVHQPPKGLVRCAHSPIGEFTYKSSCAFSCEEGFELHGSTQLECTSQGQWTEEVPSCQVVKCSSLAVPGKINMSCSGEPVFGTVCKFACPEGWTLNGSAARTCGATGHWSGLLPTCEAPTESNIP
Kd [1]: 342 nM | Kd [2]: 229 nM | koff [3]: 0.00033 s⁻¹ | koff [4]: 0.000262 s⁻¹ | kon [4]: 1140 M⁻¹ s⁻¹ | kon [5]: ~728 M⁻¹ s⁻¹ | Kd [6]: 214 nM | Kd [7]: 237 nM | koff [8]: 0.00029 s⁻¹ | kon [8]: 2030 M⁻¹ s⁻¹ | Kd [9]: 252 nM | koff [10]: 0.00016 s⁻¹ | kon [10]: 597 M⁻¹ s⁻¹ | % E-Ig binding assuming 1:1 stoichiometry [11]: 23% | koff [12]: 0.000331 s⁻¹

Source: patent publication US20200199533A1 (KING ABDULLAH UNIVERSITY OF SCIENCE AND TECHNOLOGY, published 2020)
